Data: patent US20040023887A1
No end group written: not given here.

Key:
[1] = target: soluble IGF-1R (recombinant human IGF-1R extracellular domain, R&D Systems Cat. # 391-GR/CF) (human), P08069; experiment: phage ELISA
[2] = target: soluble human insulin receptor-immunoglobulin heavy chain chimera (human), P06213; experiment: phage ELISA
[3] = target: Insulin receptor prepared according to Bass et al., 1996 (soluble IR-immunoglobulin chimera) (human) (UniProt P06213); experiment: phage ELISA; IR ratio divided by IGF-1R ratio
[4] = target: Insulin receptor prepared according to Bass et al., 1996 (soluble IR-immunoglobulin chimera) (human) (UniProt P06213); experiment: phage ELISA, receptor coated on plate; A405 over non-fat milk
[5] = target: soluble human insulin receptor-immunoglobulin heavy chain chimera (human) (UniProt P06213); experiment: phage ELISA
[6] = target: His-tagged soluble recombinant human IGF-1R (human), P08069; experiment: AlphaScreen competition versus IGF-1 (b-hIGF-1, srhIGF-1R-his)

B1: 20E2B-2-B11-IGFR (peptide)
peptide: VVTPVNFYRALEALVRGXRLG
modifications: not fully specified; printed as VVTPVNFYRALEALVRG.RLG; X: residue not identified in the source
Work on B1 yielded an IGF-1R/IR ratio comparison [1] of 9.4, a ratio over background [1] of 10.6 and an IR/IGF-1R ratio comparison [2] of 0.1. It also gave a ratio over background [2] of 1.1.

In the case of AGSVTSFYDAMEQLVATGTSA [20E2A-3-A4-IGFR], the IR/IGF-1R ratio comparison [3] is reported as 0.7 and the ratio over background (IR) (fold over background) [4] is reported as 1.8.

YRGMLVLGRISGGAGKAASERPARIGQKVSAVNFYDWFV [A6L-0-E3-IR] gave an IR/IGF-1R ratio comparison [5] of 0.1 and a ratio over background [5] of 2.

Binder CCTTEMVVMDARDDPFYHKLSELVTGG [B6Hα-1-B5-IR] has an IR/IGF-1R ratio comparison [5] of 0 and a ratio over background [5] of 1.

For QPDHSYFYSLLQELVGSEERL [20E2B-4-F9-IGFR], the IR/IGF-1R ratio comparison [5] was 0.1 and the ratio over background [5] was 1.9.

RGAVAGFHDQFYDWFDRQVSRVHKFG [H2CA-4-H9-IGFR] was tested, and the IR/IGF-1R ratio comparison [5] was 0.3 and the ratio over background [5] was 1.9.

Binder SQAGSAFYAWFDQVLRTVHSA [20E2Bβ-4-G6-IR] has an IR/IGF-1R ratio comparison [5] of 0.3 and a ratio over background [5] of 1.9.

Work on TFYSCLASLLTGTPQPNRGPWERCRKK (modifications not checked) [RP6KK] yielded an Affin. [6] of 0.19 µM.
